Results published in the RNAGym collection of RNA variant scans (doi:10.1093/nar/gkz1192).

B1: CPEB3 Ribozyme (parent)
chain: UAACAGGGGGCCACAGCAGAAGCGUUCACGUCGCAGCCCCUGUCAGAUUCUGGUGAAUCUGCGAAUUCUGCUGUAUAUCUC

Variants of: B1
Experiment: self-cleavage, relative activity (ratio to wild type); higher = more cleavage; in vitro, sequencing
Method in brief: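 Relative activity was defined as the cleaved/total read fraction for a variant divided by the same fraction for the unmutated ribozyme. CPEB3 self-cleaving ribozyme libraries were made by rounds of error-prone PCR, barcoded, and transcribed in vitro with T7 RNA polymerase for 5 hours at 37°C, and cleavage ran through transcription plus a 15 min DNase I step before EDTA. Illumina sequencing of template-switched reverse transcripts gave the reads, and DNA sequencing mapped the barcodes. Averages come from three batches, using variants with at least 5 reads.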

| Variant | self-cleavage |
| --- | --- |
| UAACAGGGGGCCACAGCAGAAGCGUUCACGUCGCAGCCCCUGUCAGAUGCUGGUGAAUCUGCGAAUUCUGCUGUGUAUCUC | 0.42 |
| UAACAGGGGGCCACAGCAGAAGCGUUCACGUCGCAGCCCCUGUCAGAUGCUGGUGAAUCUGCGAAUUCUGCUGUAUGUCUC | 0.39 |
| UAACAGGGGGCCACAGCAGAAGCGUUCACGUCGCAGCCCCUGUCAGAUGCUGGUGAAUCUGCGAAUUCUGCUGUAUAUUUC | 0.77 |
| UAACAGGGGGCCACAGCAGAAGCGUUCACGUCGCAGCCCCUGUCAGAUGCUGGUGAAUCUGCGAAUUCUGCUGUAUAUCUU | 0.77 |
| UAACAGGGGGCCACAGCAGAAGCGUUCACGUCGCAGCCCCUGUCAGAUGCUGGUUAAUCUGCGAAUUCUGCUGUAUAUCUC | 0.88 |
| UAACAGGGGGCCACAGCAGAAGCGUUCACGUCGCAGCCCCUGUCAGAUGCUGGUGAAUCUGCAAAUUCUGCUGUAUAUCUC | 0.28 |
| UAACAGGGGGCCACAGCAGAAGCGUUCACGUCGCAGCCCCUGUCAGAUGCCGGUGAAUCUGCGAAUUCUGCUGUAUAUCUC | 0.63 |
| UAACAGGGGGCCACAGCAGAAGCGUUCACGUCGCAGCCCCUGUCAGAUGCUGGCGAAUCUGCGAAUUCUGCUGUAUAUCUC | 0.44 |
| UAACAGGGGGCCACAGCAGAAGCGUUCACGUCGCAGCCCCUGUCAGAUGCUGGUGAACCUGCGAAUUCUGCUGUAUAUCUC | 0.2 |
| UAACAGGGGGCCACAGCAGAAGCGUUCACGUCGCAGCCCCUGUCAGAUGCUGGUGAAUCCGCGAAUUCUGCUGUAUAUCUC | 0.23 |
| UAACAGGGGGCCACAGCAGAAGCGUUCACGUCGCAGCCCCUGUCAGAUGCUGGUGAAUCUGCGAAUCCUGCUGUAUAUCUC | 0.31 |
| UAACAGGGGGCCACAGCAGAAGCGUUCACGUCGCAGCCCCUGUCAGAUGCUGGUGAAUCUGCGAAUUCAGCUGUAUAUCUC | 0.36 |
| UAACAGGGGGCCACAGCAGAAGCGUUCACGUCGCAGCCCCUGUCAGAUGCUGGUGAAUCUGCGAAUUCCGCUGUAUAUCUC | 0.21 |
| UAACAGGGGGCCACAGCAGAAGCGUUCACGUCGCAGCCCCUGUCAGAUGCUGGUGAAUCUGCGAAUUCUGCCGUAUAUCUC | 0.72 |
| UAACAGGGGGCCACAGCAGAAGCGUUCACGUCGCAGCCCCUGUCAGAUGCUGGUGAAUCUGCGAAUUCUGCUGUAUACCUC | 0.43 |
| UAACAGGGGGCCACAGCAGAAGCGUUCACGUCGCAGCCCCUGUCAGAUGCUGGUGAAUCUGCGAAUUCUGCUGUAUAUCCC | 0.48 |
| UAACAGGGGGCCACAGCAGAAGCGUUCACGUCGCAGCCCCUGUCAGAUUAUGGUGAAUCUGCGAAUUCUGCUGUAUAUCUC | 0.88 |

| Variant | self-cleavage |
| --- | --- |
| UAACAGGGGGCCACAGCAGAAGCGUUCACGUCGCAGCCCCUGUCAGAUUAUGGUGGAUCUGCGAAUUCUGCUGUAUAUCUC | 0.43 |
| UAACAGGGGGCCACAGCAGAAGCGUUCACGUCGCAGCCCCUGUCAGAUUAUGGUGAUUCUGCGAAUUCUGCUGUAUAUCUC | 0.22 |
| UAACAGGGGGCCACAGCAGAAGCGUUCACGUCGCAGCCCCUGUCAGAUUAUGGUGAAUCUGCGCAUUCUGCUGUAUAUCUC | 0.43 |
| UAACAGGGGGCCACAGCAGAAGCGUUCACGUCGCAGCCCCUGUCAGAUUAUGGUGAAUCUGCGGAUUCUGCUGUAUAUCUC | 0.73 |
| UAACAGGGGGCCACAGCAGAAGCGUUCACGUCGCAGCCCCUGUCAGAUUAUGGUGAAUCUGCGAGUUCUGCUGUAUAUCUC | 0.31 |
| UAACAGGGGGCCACAGCAGAAGCGUUCACGUCGCAGCCCCUGUCAGAUUAUGGUGAAUCUGCGAAUUCUGCUGUAUUUCUC | 0.67 |
| UAACAGGGGGCCACAGCAGAAGCGUUCACGUCGCAGCCCCUGUCAGAUUAUGGUGAAUCUGCGAAUUCUGGUGUAUAUCUC | 0.18 |
| UAACAGGGGGCCACAGCAGAAGCGUUCACGUCGCAGCCCCUGUCAGAUUAUGGUGAAUCUGCGAAUUCUGUUGUAUAUCUC | 0.55 |
| UAACAGGGGGCCACAGCAGAAGCGUUCACGUCGCAGCCCCUGUCAGAUUAUGGUGAAUCUGCGAAUUCUGCUAUAUAUCUC | 1.24 |
| UAACAGGGGGCCACAGCAGAAGCGUUCACGUCGCAGCCCCUGUCAGAUUAAGGUGAAUCUGCGAAUUCUGCUGUAUAUCUC | 0.84 |
| UAACAGGGGGCCACAGCAGAAGCGUUCACGUCGCAGCCCCUGUCAGAUUACGGUGAAUCUGCGAAUUCUGCUGUAUAUCUC | 0.93 |
| UAACAGGGGGCCACAGCAGAAGCGUUCACGUCGCAGCCCCUGUCAGAUUAUGGAGAAUCUGCGAAUUCUGCUGUAUAUCUC | 0.88 |
| UAACAGGGGGCCACAGCAGAAGCGUUCACGUCGCAGCCCCUGUCAGAUUAUGGCGAAUCUGCGAAUUCUGCUGUAUAUCUC | 0.83 |
| UAACAGGGGGCCACAGCAGAAGCGUUCACGUCGCAGCCCCUGUCAGAUUAUGGUGAAUCAGCGAAUUCUGCUGUAUAUCUC | 0.27 |
| UAACAGGGGGCCACAGCAGAAGCGUUCACGUCGCAGCCCCUGUCAGAUUAUGGUGAAUCCGCGAAUUCUGCUGUAUAUCUC | 0.13 |
| UAACAGGGGGCCACAGCAGAAGCGUUCACGUCGCAGCCCCUGUCAGAUUAUGGUGAAUCUGCGAACUCUGCUGUAUAUCUC | 0.3 |
| UAACAGGGGGCCACAGCAGAAGCGUUCACGUCGCAGCCCCUGUCAGAUUAUGGUGAAUCUGCGAAUACUGCUGUAUAUCUC | 0.38 |
